Patent US20230331848A1 (BIOSION, published 2023)
Read-outs that look alike come from different tables or passages of the source. Blank lines part the entries; values can stand above or below the binder they belong to.

Experiments:
[1] = target: T1, cynomolgus PD-1-his protein (Cat#:PD1-05223, Acro biosystems Inc.) (cynomolgus, UniProt B0LAJ3 25-170); test: indirect ELISA on coated cynomolgus PD-1-his
T1 construct: Bought protein used in Biacore and indirect ELISA; also called monkey PD-1; Cyno PD-1

[2] = target: T1, cynomolgus PD-1-his protein …; test: SPR (Biacore T200), antibody captured on Protein G chip, PD-1-his in flow, 1:1 fit
[3] = target: T2, in house made human PD-1-Fc protein (human, biotin-labeled (sites not given)); test: blocking FACS: biotin human PD-1-Fc + antibody on GS-C2/PD-L1 cells (competitor: cell-surface human PD-L1)
T2 construct: also called biotin-labeled human PD-1-Fc
Experimental: (§1) GS-C2/PDL1 cells were harvested from cell culture flasks at the log phase, washed twice and re-suspended in PBS containing 2% v/v Fetal Bovine Serum (FACS buffer). GS-C2/PD-L1 cells, 0.6×10⁵ cells per welt, were incubated in 96 well-plates with 100 the antibody/PD1-Fc mixture for 40 minutes at 4° C. Cells were washed twice with FACS buffer, added with 100 R-Phycoerythrin Streptavidin (1:500 dilution in FACS buffer, Cat#:016-110-084, Jackson Immunoresearch), and incubated for 40 minutes at 4° C. in dark. Cells were washed twice and re-suspended in FACS buffer. Fluorescence was measured using a Becton Dickinson FACS Canto II-HTS equipment. Data was analyzed using Graphpad Prism software and IC₅₀ values were reported.

[4] = target: T3, human PD-1-his protein (Cat#:PD1-H5221, Acro biosystems Inc.) (human, UniProt Q15116 25-167); test: BLI (Octet RED96), cell supernatant antibody captured on AHC sensor, human PD-1-his in solution
T3 construct: not shown: his tag
Experimental: Briefly, AHC biosensors (anti-human IgG Fe capture, from ForteBio) were presoaked with 10 mM glycine (pH 1.5) for 3 seconds, and then dipped in a well with running buffer (0.5% w/v BSA in PBST) for 3 seconds, the soaking and dipping steps were repeated for three times. […] A new baseline was run for 100 seconds in another well with running buffer. Then the sensors were dipped in a well with serially diluted human PD-1-his protein (Cat#:PD1-H5221, Acro biosystems Inc., starting at 100 nM with a two-fold serial dilution) in running buffer for 120 seconds, and then immersed in a baseline well for […]. Finally, sensors were presoaked with 10 mM glycine (pH 1.5) for 30 seconds, and then were dipped in a well with running buffer for 30 seconds. The association and dissociation curves were fit to a 1:1 Langmuir binding model using ForteBio Data Analysis 8.1 evaluation software.

[5] = target: T1, cynomolgus PD-1-his protein …; test: indirect ELISA on coated cynomolgus PD-1-his; unit from the axis 'Con of mAb, nM.'
Experimental: (§2) Briefly, 96-well micro plates were coated with 100 μl 2 μg/ml mouse PD-1-his (Cat#:50124-M08H, Sino Biological Inc) or 2 μg,/ml cynomolgus PD-1-his (Cat#:PD1-05223, Acro biosystems Inc.) in carbonate/bicarbonate buffer (pH 9.6) for 2 hours at 37° C. Plates were washed once with wash buffer (PBST, PBS+0.05% Tween-20) and then blocked with 200 μl blocking buffer (5% w/v non-fatty milk in PBST) for 2 hours at 37° C. […] ELISA plates were washed 4 times and incubated with Peroxidase AffiniPure goat anti-mouse IgG, Fcγ Fragment Specific (1:5000 dilution in PBST buffer, Cat#:115-035-071, Jackson ImmunoResearch Laboratories, Inc., 100 μl/well) or Peroxidase AffiniPure F(ab′)₂ Fragment Goat Anti-Human IgG, Fcγ fragment specific (Cat#:109-036-098, Jackson ImmunoResearch, for the controls) for 40 minutes at 37° C. After a final wash, plates were incubated with 100 μl/well TMB (Cat#:TMB-S-002, innoreagents) at room temperature. The reaction was stopped 3-10 minutes later with 50 μl/well 1M H₂SO₄, and the absorbance was read on a microplate reader using dual wavelength mode with 450 nm for TMB and 630 nm as the reference wavelength. Then the OD (450-630) values were plotted against antibody concentrations. Data was analyzed using GraphPad Prism software and EC₅₀ values were reported.

[6] = target: T1, cynomolgus PD-1-his protein …; test: as above; remark: listed apart in the source
Experimental: as §2

[7] = target: T2, in house made human PD-1-Fc protein; test: competitive ELISA: antibody pre-mixed with biotin-labeled human PD-1-Fc, added to coated human PD-L1-Fc (blocked ligand); unit from the axis 'Con of mAb, nM.'
Experimental: (§3) The activities of the anti-PD1 antibodies of the disclosure to block PD-L1-PD1 binding were measured in a competitive ELISA.
(§4) Briefly, 100 μl human PD-L1-Fc protein (prepared in-house with SEQ ID NO: 28) at 2 μg/mL in carbonate/bicarbonate buffer (pH 9.6) was coated on 96-well micro plates overnight at 4° C., Plates were washed with wash buffer (PBS+0.05% w/v Tween-20, PBST), and blocked with 5% w/v non-fatty milk in PBST for 2 hours at 37° C. […] After incubation at 37° C. for 40 minutes, plates were washed using wash buffer. […] Plates were washed again using wash buffer. Finally, TMB was added and the reaction was stopped using 1M H₂SO₄. The absorbance was read on a microplate reader using dual wavelength mode with 450 nm for TMB and 630 nm as the reference wavelength, then the OD (450-630) values were plotted against antibody concentrations. Data was analyzed using Graphpad Prism software and IC₅₀ values were reported.

[8] = target: T2, in house made human PD-1-Fc protein; test: as above; remark: listed apart in the source
Experimental: as §3, §4

[9] = target: T2, in house made human PD-1-Fc protein; test: capture ELISA: antibody captured on anti-human IgG coated plate, biotin-labeled human PD-1-Fc detected with streptavidin-HRP; unit from the axis 'Con of mAb, nM.'
[10] = target: T2, in house made human PD-1-Fc protein; test: as above; remark: listed apart in the source
[11] = target: T2, in house made human PD-1-Fc protein; test: competitive ELISA: soluble Pembrolizumab pre-mixed with biotin-labeled human PD-1-Fc, added to coated Pembrolizumab (self-competition); unit from the axis 'Con of mAb, nM.'
[12] = target: T2, in house made human PD-1-Fc protein; test: as above; remark: listed apart in the source
[13] = target: T2, in house made human PD-1-Fc protein; test: cell-based blocking FACS: antibody pre-mixed with biotin-labeled human PD-1-Fc, added to GS-C2/PD-L1 cells expressing human PD-L1 (blocked ligand); unit from the axis 'Con of mAb, nM.'
Experimental: as §1

- EC50 [1]: 0.23 nM
- Kd [2]: 5.64 nM
- IC50 [3]: 0.52 nM
B1: Nivolumab (antibody, V domains shown)
VH: QVQLVESGGGVVQPGRSLRLDCKASGITFSNSGMHWVRQAPGKGLEWVAVIWYDGSKRYYADSVKGRFTISRDNSKNTLFLQMNSLRAEDTAVYYCATNDDYWGQGTLVTVSS
VL: EIVLTQSPATLSLSPGERATLSCRASQSVSSYLAWYQQKPGQAPRLLIYDASNRATGIPARFSGSGSGTDFTLTISSLEPEDFAVYYCQQSSNWPRTFGQGTKVEIK

B2: humanized antibody huE1A9C8A7-V3 (antibody, human IgG4 S228P, kappa, V domains shown)
VH: QVQLVQSGAEVVKPGASVKISCKASGYTFSDYVMHWVRQAPGQSLEWIGVISTYHIPAVYNQKFKGKATMTVDKSTSTVYLELSSLRSEDTAVYYCAREVYGDSYYFDVWGQGTTVTVSS
VL: DIVMTQTPLSLPVTPGEPASISCRSSQSIVHSNGNTYLEWYLQKPGQSPQLLIYKVSNRFSGVPDRFSGSGSGTDFTLKISRVEAEDVGVYYCFQGSHVPYTFGGGTKVEIKR
notes: Human IgG4/kappa
- binding result [4]: no binding (tested: antigen series starting at 100 nM)

- EC50 [1]: 0.2 nM
- EC50 [5]: 0.0957 nM
- EC50 [6]: 0.093 nM
- IC50 [3]: 0.49 nM
- IC50 [7]: 0.345 nM
- IC50 [8]: 0.37 nM
- EC50 [9]: 0.118 nM
- EC50 [10]: 0.113 nM
- IC50 [11]: 0.0759 nM
- IC50 [12]: 0.0735 nM
- IC50 [13]: 0.32 nM
B3: Pembrolizumab (antibody, V domains shown)
VH: QVQLVQSGVEVKKPGASVKVSCKASGYTFTNYYMYWVRQAPGQGLEWMGGINPSNGGTNFNEKFKNRVTLTTDSSTTTAYMELKSLQFDDTAVYYCARRDYRFDMGFDYWGQGTTVTVSS
VL: EIVLTQSPATLSLSPGERATLSCRASKGVSTSGYSYLHWYQQKPGQAPRLLIYLASYLESGVPARFSGSGSGTDFTLTISSLEPEDFAVYYCQHSRDLPLTFGGGTKVEIKR
